For this assay, the target named is mouse α4 integrin (mouse) (UniProt Q00651). Description: cell-based or functional assay.
Chain of UniProt Q00651 (Q00651 41-1039, form in doubt, chain 1 of 2): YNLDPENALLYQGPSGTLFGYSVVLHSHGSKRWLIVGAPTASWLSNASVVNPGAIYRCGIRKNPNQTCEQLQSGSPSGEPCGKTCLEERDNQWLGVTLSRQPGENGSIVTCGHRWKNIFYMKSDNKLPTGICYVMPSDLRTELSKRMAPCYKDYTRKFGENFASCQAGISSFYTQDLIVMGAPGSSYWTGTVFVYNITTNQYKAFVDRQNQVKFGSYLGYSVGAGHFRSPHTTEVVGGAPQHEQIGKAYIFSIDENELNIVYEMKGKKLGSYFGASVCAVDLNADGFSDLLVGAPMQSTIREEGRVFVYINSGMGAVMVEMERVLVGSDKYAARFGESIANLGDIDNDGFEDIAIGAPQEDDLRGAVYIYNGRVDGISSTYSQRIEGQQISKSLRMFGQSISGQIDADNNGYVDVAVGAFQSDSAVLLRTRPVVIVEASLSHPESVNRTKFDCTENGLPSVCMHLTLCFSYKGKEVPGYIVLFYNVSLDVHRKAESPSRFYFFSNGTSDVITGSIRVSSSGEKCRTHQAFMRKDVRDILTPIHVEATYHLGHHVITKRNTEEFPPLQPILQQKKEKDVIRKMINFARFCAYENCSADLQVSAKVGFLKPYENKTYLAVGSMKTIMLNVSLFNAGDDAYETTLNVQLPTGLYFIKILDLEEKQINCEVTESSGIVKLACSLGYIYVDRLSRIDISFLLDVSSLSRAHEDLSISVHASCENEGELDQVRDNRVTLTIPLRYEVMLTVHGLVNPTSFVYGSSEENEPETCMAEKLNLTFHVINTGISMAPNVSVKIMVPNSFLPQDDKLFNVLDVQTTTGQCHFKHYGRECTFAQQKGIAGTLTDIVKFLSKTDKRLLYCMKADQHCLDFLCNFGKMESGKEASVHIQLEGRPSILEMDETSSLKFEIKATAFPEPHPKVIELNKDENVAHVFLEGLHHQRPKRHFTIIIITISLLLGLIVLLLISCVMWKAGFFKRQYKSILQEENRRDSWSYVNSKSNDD
Chain of UniProt Q00651 (chain, as listed by the source, form in doubt, chain 2 of 2): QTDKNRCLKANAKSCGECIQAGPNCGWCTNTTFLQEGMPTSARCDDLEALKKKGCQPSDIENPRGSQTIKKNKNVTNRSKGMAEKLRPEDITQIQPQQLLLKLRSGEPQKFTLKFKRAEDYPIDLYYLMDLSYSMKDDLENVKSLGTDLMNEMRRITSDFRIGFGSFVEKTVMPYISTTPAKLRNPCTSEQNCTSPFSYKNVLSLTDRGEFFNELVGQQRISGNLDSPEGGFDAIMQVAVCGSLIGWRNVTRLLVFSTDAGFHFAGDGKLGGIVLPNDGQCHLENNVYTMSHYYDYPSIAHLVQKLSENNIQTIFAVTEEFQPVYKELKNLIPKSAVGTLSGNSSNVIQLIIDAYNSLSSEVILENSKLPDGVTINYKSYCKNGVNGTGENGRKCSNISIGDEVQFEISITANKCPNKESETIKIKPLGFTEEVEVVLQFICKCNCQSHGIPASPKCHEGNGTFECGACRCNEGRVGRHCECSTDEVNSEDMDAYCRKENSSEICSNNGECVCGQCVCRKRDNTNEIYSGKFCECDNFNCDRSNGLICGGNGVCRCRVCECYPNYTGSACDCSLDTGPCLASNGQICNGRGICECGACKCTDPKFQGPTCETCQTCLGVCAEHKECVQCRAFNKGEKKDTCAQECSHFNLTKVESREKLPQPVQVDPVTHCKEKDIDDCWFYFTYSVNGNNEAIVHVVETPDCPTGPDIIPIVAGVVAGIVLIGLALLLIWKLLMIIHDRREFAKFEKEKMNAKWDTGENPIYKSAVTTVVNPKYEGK

“anti-α4 integrin antibody (clone R1-2) (Pharmingen)”: the inhibition of growth of B16-BL6 cells (Cell Counting Kit 8, O.D. 450), 10 µg/ml antibody amounted to 20%.

(Values after patent US20080152653A1.)
